Source: patent US20120201809A1 (COVX TECHNOLOGIES IRELAND, published 2012)
Where two headings read alike, the source gives them in different places.

Key:
[1] = target: T1, human IGF1R on cells (mouse 3T3 cells engineered to express human IGF1R); human colon adenocarcinoma Colo205 … (human, UniProt P08069 31-1367); test: cell-based or functional assay
[2] = target: T1, human IGF1R on cells (mouse 3T3 cells …); test: cell-based or functional assay; remark: listed apart in the source

B1: 2.12.1.fx antibody (anti-IGF1R antibody) (antibody, human IgG2, kappa, V domains shown)
VH: QVQLVESGGGLVKPGGSLRLSCAASGFTFSDYYMSWIRQAPGKGLEWVSYISSSGSTRDYADSVKGRFTISRDNAKNSLYLQMNSLRAEDTAVYYCVRDGVETTFYYYYYGMDVWGQGTTVTVSS
VL: DIQMTQSPSSLSASVGDRVTITCRASQDIRRDLGWYQQKPGKAPKRLIYAASRLQSGVPSRFSGSGSGTEFTLTISSLQPEDFATYYCLQHNNYPRTFGQGTKLVIKR
% IGF1R downregulated [1]: 36% | % IGF1R downregulated [2]: 48%
